# Results taken from article PMC6891888.
# Tests used:
# [1] = target: 16055 NFL TD 2CC+ trimer (HIV-1 (strain 16055)); assay: cryo-EM structure
# [2] = target: BG505 NFL CC+ trimer (HIV-1 (strain BG505)); assay: cryo-EM structure
Substance,stoichiometry N [1],stoichiometry N [2]
16055 NFL TD 2CC+ trimer (domain or fragment),3,–
BG505 NFL CC+ trimer (domain or fragment),–,3
